Blank lines part the entries; values can stand above or below the molecule they belong to.
Tests used:
VCAM-1/Fc = VCAM-1/Fc (UniProt P19320); experiment: cell-based or functional assay
ICAM-1/Fc = ICAM-1/Fc (UniProt P05362); experiment: cell-based or functional assay
[1] = target: T1, His3E9-tagged β2 integrin cytoplasmic tail protein (UniProt P05107 724-769, not fully specified); experiment: competition binding assay, competitor at 0.001 to 4 µM against iodinated IRP-1 on immobilized β2 C-tail
T1 construct: domain: cytoplasmic tail; Expressed in E. coli (pET15b) or Saccharomyces; immobilized on Scintistrip plates; also called β2 C-tail; β2 integrin C-tail; not shown: His3E9 tag
T1 chain (looked up): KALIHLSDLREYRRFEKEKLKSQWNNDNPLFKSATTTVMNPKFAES
Protocol: (§1) The integrin C-tails were immobilized onto 96-well microtiter Scintistrip™ (Wallac) plates at concentrations between […] in volumes of 50-100 μl bicarbonate, pH 9.6, per well and were incubated at 4° C. overnight. Plates were dried and blocked in 350 μl/well sterile-filtered 1-2% Bovine Serum Albumin (BSA) dissolved in binding assay buffer and were incubated at room temperature for 1-2 hours. The wells were washed 3 times in binding assay buffer and dried just prior to addition of IRPs.
The binding assay format was either a competition/inhibition binding assay or a saturation binding assay. In the competition binding assay, radiolabeled IRPs were diluted to 25-100 nM in binding assay buffer with one potential modulator of binding (unlabelled IRPs, soluble C-tails or non-specific control polypeptides such as BSA). The assay was initiated with addition of 100 μl labeled IRPs/potential modulator solution to the blocked Scintistrip® wells (50,000-200,000 cpm/well), then incubated one hour at room temperature (22-24° C.) and stopped by rapidly washing in binding assay buffer three to five times. The saturation binding assays were performed similarly, except that a constant 1:20 ratio of radiolabeled:unlabeled IRPs were tested over a total concentration range of 0.01-30 μM. The plates were dried and scintillation was measured on a Wallac Model 1450 liquid scintillation counter after the detectors were normalized. Interwell crosstalk was corrected for with a test Scintistrip™ plate, containing in the G11, 100 μl of 25-100 nM radiolabeled IRP captured by anti-IRP monoclonal antibody 200A coated in the well at 20 μg/ml in bicarbonate buffer. The incubation times and conditions for the test plate were identical to the binding assay above.

[2] = target: T2, Bovine Serum Albumin (BSA) (bovine, UniProt P02769 25-607); experiment: radiolabelled IRP-1 on BSA-blocked Scintistrip wells
T2 construct: also called control peptide
Protocol: as §1
The binding assay format was either a competition/inhibition binding assay or a saturation binding assay. In the competition binding assay, radiolabeled IRPs were diluted to 25-100 nM in binding assay buffer with one potential modulator of binding (unlabelled IRPs, soluble C-tails or non-specific control polypeptides such as BSA). […] The plates were dried and scintillation was measured on a Wallac Model 1450 liquid scintillation counter after the detectors were normalized. […]
Binding was measured as counts of radiolabeled IRPs found in C-tail-coated wells above counts found in BSA-coated wells. Specific binding was assessed as counts found in C-tail-coated wells which were reduced with added unlabelled IRPs or soluble C-tails.

Sequence of ICAM-1/Fc (P05362 28-480 limits assumed): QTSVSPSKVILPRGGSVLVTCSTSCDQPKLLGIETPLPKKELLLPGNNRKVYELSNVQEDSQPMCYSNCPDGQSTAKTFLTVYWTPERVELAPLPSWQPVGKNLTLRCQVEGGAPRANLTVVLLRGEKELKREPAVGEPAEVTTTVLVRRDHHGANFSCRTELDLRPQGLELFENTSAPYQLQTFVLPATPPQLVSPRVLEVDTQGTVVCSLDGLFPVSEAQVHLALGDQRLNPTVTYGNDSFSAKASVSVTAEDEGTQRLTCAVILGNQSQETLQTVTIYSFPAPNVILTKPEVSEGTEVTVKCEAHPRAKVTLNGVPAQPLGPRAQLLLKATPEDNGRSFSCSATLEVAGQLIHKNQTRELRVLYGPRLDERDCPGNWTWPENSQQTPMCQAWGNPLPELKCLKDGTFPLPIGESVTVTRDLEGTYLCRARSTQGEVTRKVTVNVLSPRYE
Sequence of VCAM-1/Fc (P19320 25-698 limits assumed): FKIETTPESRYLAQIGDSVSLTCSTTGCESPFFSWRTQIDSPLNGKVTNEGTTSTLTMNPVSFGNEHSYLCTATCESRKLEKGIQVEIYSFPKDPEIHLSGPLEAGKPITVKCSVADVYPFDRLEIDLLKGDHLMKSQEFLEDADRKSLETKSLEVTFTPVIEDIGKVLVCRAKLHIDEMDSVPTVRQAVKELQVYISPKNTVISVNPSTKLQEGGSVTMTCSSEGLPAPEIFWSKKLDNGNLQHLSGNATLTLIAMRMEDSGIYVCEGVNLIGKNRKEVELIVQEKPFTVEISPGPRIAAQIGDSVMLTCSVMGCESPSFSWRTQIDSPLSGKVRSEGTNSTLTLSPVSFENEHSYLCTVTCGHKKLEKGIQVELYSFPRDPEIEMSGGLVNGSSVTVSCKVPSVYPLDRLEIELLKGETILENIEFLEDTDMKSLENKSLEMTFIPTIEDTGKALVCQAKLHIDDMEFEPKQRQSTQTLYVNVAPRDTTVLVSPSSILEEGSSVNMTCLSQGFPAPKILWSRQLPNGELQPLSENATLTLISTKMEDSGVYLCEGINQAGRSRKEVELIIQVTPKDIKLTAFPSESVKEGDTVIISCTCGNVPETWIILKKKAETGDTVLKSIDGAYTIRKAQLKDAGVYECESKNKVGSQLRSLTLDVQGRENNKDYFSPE
T2 sequence (P02769 25-607 limits assumed): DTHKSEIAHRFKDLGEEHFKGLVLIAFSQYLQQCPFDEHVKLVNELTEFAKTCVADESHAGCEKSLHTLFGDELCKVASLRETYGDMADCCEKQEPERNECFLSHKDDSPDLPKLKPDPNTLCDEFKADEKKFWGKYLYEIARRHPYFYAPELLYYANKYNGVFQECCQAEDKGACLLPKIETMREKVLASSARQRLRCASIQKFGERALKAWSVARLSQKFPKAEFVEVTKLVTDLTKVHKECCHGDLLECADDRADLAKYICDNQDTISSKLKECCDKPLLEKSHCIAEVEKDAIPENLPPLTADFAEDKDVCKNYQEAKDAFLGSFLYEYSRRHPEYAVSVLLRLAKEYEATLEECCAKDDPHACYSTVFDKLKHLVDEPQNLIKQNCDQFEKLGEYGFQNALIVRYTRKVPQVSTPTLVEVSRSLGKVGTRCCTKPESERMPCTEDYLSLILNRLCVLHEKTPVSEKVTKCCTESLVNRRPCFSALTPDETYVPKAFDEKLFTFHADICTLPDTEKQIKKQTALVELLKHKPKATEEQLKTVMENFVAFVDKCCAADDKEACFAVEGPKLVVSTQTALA

B1: IRP-1 Sec7 domain (recombinant, soluble competitor) (other)
chain: KFNMDPKKGIQFLVENELLQNTPEEIARFLYKGEGLNKTAIGDYLGEREELNLAVLHAFVDLHEFTDLNLVQALRQFLWSFRLPGEAQKIDRMMEAFAQRYCLCNPGVFQSTDTCYVLSFAVIMLNTSLHNPNVRDKPGLERFVAMNRGINEGGDLPEELLRNLYDSIRNEPFKI
percent decrease of iodinated IRP-1 binding [1]: ~75%

B2: His-tagged IRP-1 (HisIRP-1), expressed in E. coli (other)
chain: MEDGVYEPPDLTPEERMELENIRRRKQELLVEIQRLREELSEAMSEVEGLEANEGSKTLQRNRKMAMGRKKFNMDPKKGIQFLVENELLQNTPEEIARFLYKGEGLNKTAIGDYLGEREELNLAVLHAFVDLHEFTDLNLVQALRQFLWSFRLPGEAQKIDRMMEAFAQRYCLCNPGVFQSTDTCYVLSFAVIMLNTSLHNPNVRDKPGLERFVAMNRGINEGGDLPEELLRNLYDSIRNEPFKIPEDDGNDLTHTFFNPDREGWLLKLGGRVKTWKRRWFILTDNCLYYFEYTTDKEPRGIIPLENLSIREVDDPRKPNCFELYIPNNKGQLIKACKTEADGRVVEGNHMVYRISAPTQEEKDEWIKSIQAAVSVDPFYEMLAARKKRISVKKKQEQP
notes: also called unlabelled IRP-1; clone S3 protein; not shown: N-terminal histidine tag encoded by pET15b
percent decrease of iodinated IRP-1 binding [1]: ~75%

B4: His-tagged B2-1 (HisB2-1), expressed in E. coli (other, human, UniProt Q15438 1-398, looked up)
chain: MEEDDSYVPSDLTAEERQELENIRRRKQELLADIQRLKDEIAEVANEIENLGSTEERKNMQRNKQVAMGRKKFNMDPKKGIQFLIENDLLKNTCEDIAQFLYKGEGLNKTAIGDYLGERDEFNIQVLHAFVELHEFTDLNLVQALRQFLWSFRLPGEAQKIDRMMEAFAQRYCQCNNGVFQSTDTCYVLSFAIIMLNTSLHNPNVKDKPTVERFIAMNRGINDGGDLPEELLRNLYESIKNEPFKIPEDDGNDLTHTFFNPDREGWLLKLGGGRVKTWKRRWFILTDNCLYYFEYTTDKEPRGIIPLENLSIREVEDSKKPNCFELYIPDNKDQVIKACKTEADGRVVEGNHTVYRISAPTPEEKEEWIKCIKAAISRDPFYEMLAARKKKVSSTKRH
notes: mature; also called cytohesin-1; not shown: N-terminal histidine tag encoded by pET15b
percent decrease of iodinated IRP-1 binding [1]: ~75%

Further lines, results first:

IL-8 stimulated adhesion to VCAM-1 of JY-8 transfectants overexpressing B2-1 (VCAM-1/Fc): 50%
static adhesion of JY-8 cells expressing only GFP (control) to immobilized VCAM-1, IL-8 against basal level (VCAM-1/Fc): 2 fold
static adhesion of JY-8 cells to VCAM-1, PMA against basal level (VCAM-1/Fc): > 4 fold
static adhesion to VCAM-1 (IL-8 induced) of JY-8 transfectants overexpressing IRP-2 against GFP transfectants (VCAM-1/Fc): 20%
static adhesion to VCAM-1 of JY-8 transfectants overexpressing IRP-1, IL-8 stimulated (VCAM-1/Fc): 40%
Molecule: integrin α4β7 on JY or JY-8 cells (from UniProt P13612 34-1032; P26010 20-798) (receptor)

decrease in ICAM-1 adhesion of COS cells co-transfected with CD11a/CD18 and 3′HA B2-1, 5′HA B2-1, B2-1 PH or IRP-1 PH, 72 hours post-transfection, against vector control (ICAM-1/Fc): 50%
decrease in static adhesion to ICAM-1 of JY-8 transfectants overexpressing IRP-1 against GFP control (basal and IL-8 stimulated) (ICAM-1/Fc): 40 to 50%
highest flow rate at which ICAM-1 binding of JYIRP-2 cells was detected after static binding (ICAM-1/Fc): < 7.5 dynes/cm^2
static adhesion of JY-8 cells expressing only GFP (control) to immobilized ICAM-1, IL-8 against basal level (ICAM-1/Fc): 3 to 4 fold
static adhesion of JY-8 cells to ICAM-1, PMA against basal level (ICAM-1/Fc): > 4 fold
static adhesion to ICAM-1 (basal or IL-8 induced) of JY-8 transfectants overexpressing IRP-2 against GFP transfectants (ICAM-1/Fc): 20%
Molecule: LFA-1 (CD11a/CD18) on JY, JY-8 or transfected COS cells (from UniProt P20701 26-1170; P05107 23-769) (receptor)

binding result [2]: no binding
B3: iodinated IRP-1 (125I-labelled His-tagged IRP-1) (other)
chain: B2 chain
modifications: radiolabeled with 125I (Iodobead or lactoperoxidase/hydrogen peroxide method); positions not given
notes: also called radiolabeled IRP-1; not shown: His tag encoded by pET15b (non-kemptide-tagged)

Reference: US20030044958A1 (ICOS, published 2003)
